Results from US20260226168A1 (CHIA TAI TIANQING PHARMACEUTICAL GROUP, published 2026).

B1: Talquetamab (bispecific antibody, human IgG4 S228P, kappa, lambda, F234A L235A)
heavy 1: not shown
light 1: DIQMTQSPSSLSASVGDRVTITCKASQNVATHVGWYQQKPGKAPKRLIYSASYRYSGVPSRFSGSGSGTEFTLTISNLQPEDFATYYCQQYNRYPYTFGQGTKLEIKRTVAAPSVFIFPPSDEQLKSGTASVVCLLNNFYPREAKVQWKVDNALQSGNSQESVTEQDSKDSTYSLSSTLTLSKADYEKHKVYACEVTHQGLSSPVTKSFNRGEC
heavy 2: EVQLVESGGGLVQPGGSLRLSCAASGFTFNTYAMNWVRQAPGKGLEWVARIRSKYNNYATYYAASVKGRFTISRDDSKNSLYLQMNSLKTEDTAVYYCARHGNFGNSYVSWFAYWGQGTLVTVSSASTKGPSVFPLAPCSRSTSESTAALGCLVKDYFPEPVTVSWNSGALTSGVHTFPAVLQSSGLYSLSSVVTVPSSSLGTKTYTCNVDHKPSNTKVDKRVESKYGPPCPPCPAPEAAGGPSVFLFPPKPKDTLMISRTPEVTCVVVDVSQEDPEVQFNWYVDGVEVHNAKTKPREEQFNSTYRVVSVLTVLHQDWLNGKEYKCKVSNKGLPSSIEKTISKAKGQPREPQVYTLPPSQEEMTKNQVSLTCLVKGFYPSDIAVEWESNGQPENNYKTTPPVLDSDGSFLLYSKLTVDKSRWQEGNVFSCSVMHEALHNHYTQKSLSLSLGK
light 2: QTVVTQEPSLTVSPGGTVTLTCRSSTGAVTTSNYANWVQQKPGQAPRGLIGGTNKRAPGTPARFSGSLLGGKAALTLSGVQPEDEAEYYCALWYSNLWVFGGGTKLTVLGQPKAAPSVTLFPPSSEELQANKATLVCLISDFYPGAVTVAWKADSSPVKAGVETTTPSKQSNNKYAASSYLSLTPEQWKSHRSYSCQVTHEGSTVEKTVAPTECS
notes: Four polypeptide chains (anti-GPRC5D-HC/LC, anti-CD3-HC/LC); made in house by in vitro assembly of the two parental monoclonal antibodies with 2-MEA; also called benchmark; BM
B2: GC35 (bispecific antibody, human IgG1, kappa, L234A L235A)
heavy: EVQLVQSGAEVVKPGASVKMSCKASGYTFTNYVMHWVKQAPGQGLEWMGYFNPYNDGTNYNEKFKGRVTLTSDTSANTAYMELSSLRSEDTAVYYCARGGVRRYFDVWGQGTTVTVSSASTKGPSVFPLAPSSKSTSGGTAALGCLVKDYFPEPVTVSWNSGALTSGVHTFPAVLQSSGLYSLSSVVTVPSSSLGTQTYICNVNHKPSNTKVDKKVEPKSCDKTHTCPPCPAPEAAGGPSVFLFPPKPKDTLMISRTPEVTCVVVDVSHEDPEVKFNWYVDGVEVHNAKTKPREEQYNSTYRVVSVLTVLHQDWLNGKEYKCKVSNKALAAPIEKTISKAKGQPREPQVCTLPPSREEMTKNQVSLSCAVKGFYPSDIAVEWESNGQPENNYKTTPPVLDSDGSFFLVSKLTVDKSRWQQGNVFSCSVMHEALHNHYTQKSLSLSPGK
light: DIQMTQSPSSLSASVGDRVTITCRASQDIGSNLNWLQLGPGGAIKRLIYATFSLDSGVPSRFSGSRSGSDYTLTISSLQPEDFVDYYCQQYANFPPTFGGGTKVEIKRTVAAPSVFIFPPSDEQLKSGTASVVCLLNNFYPREAKVQWKVDNALQSGNSQESVTEQDSKDSTYSLSSTLTLSKADYEKHKVYACEVTHQGLSSPVTKSFNRGEC
scFv: ELVVTQEPSLTTSPGGTVTLTCRSSTGAVTTSNYANWVQQKPGQAPRGLIGGTNKRAPGTPARFSGSLLGGKAALTITGVQPEDEAEYYCALWYSNLWVFGGGTKLTVLGGGGSGGGGSGGGGSEVQLVESGGGLVQPGGSLRLSCAASGFTFNTYAMNWVRQAPGKGLEWVARIRSKYNNYATYYADSVKDRFTISRDDSKNTAYLQMNNLKTEDTAMYYCVRHGNFGNSYVSWFAYWGQGTLVTVSSGEPKSSDKTHTCPPCPAPEAAGGPSVFLFPPKPKDTLMISRTPEVTCVVVDVSHEDPEVKFNWYVDGVEVHNAKTKPREEQYNSTYRVVSVLTVLHQDWLNGKEYKCKVSNKALAAPIEKTISKAKGQPREPQVYTLPPCREEMTKNQVSLWCLVKGFYPSDIAVEWESNGQPENNYKTTPPVLDSDGSFFLYSKLTVDKSRWQQGNVFSCSVMHEALHNRYTQKSLSLSPGK
notes: also called anti-GPRC5D/anti-CD3 bispecific antibody GC35
B3: GC39 (bispecific antibody, human IgG1, kappa, L234A L235A)
heavy: EVQLVESGGGLVQPGGSRRVSCAASGFTFSSFGMHWVRQAPGKGLEWVAYISRGSSTIYYADTVKGRFTISRDNAKNSLYLQMNSLRAEDTAVYYCARSGYGSSSYYFDYWGQGTTVTVSSASTKGPSVFPLAPSSKSTSGGTAALGCLVKDYFPEPVTVSWNSGALTSGVHTFPAVLQSSGLYSLSSVVTVPSSSLGTQTYICNVNHKPSNTKVDKKVEPKSCDKTHTCPPCPAPEAAGGPSVFLFPPKPKDTLMISRTPEVTCVVVDVSHEDPEVKFNWYVDGVEVHNAKTKPREEQYNSTYRVVSVLTVLHQDWLNGKEYKCKVSNKALAAPIEKTISKAKGQPREPQVCTLPPSREEMTKNQVSLSCAVKGFYPSDIAVEWESNGQPENNYKTTPPVLDSDGSFFLVSKLTVDKSRWQQGNVFSCSVMHEALHNHYTQKSLSLSPGK
light: EIVLTQSPATLSASPGERATMSCRASSSIRSSYLHWYQQKPGQSPRLWIYSTSNLASGVPARFSGSGSGTDYTLTISSLEPEDAAVYYCQQFSGYPLTFGGGTKVEIKRTVAAPSVFIFPPSDEQLKSGTASVVCLLNNFYPREAKVQWKVDNALQSGNSQESVTEQDSKDSTYSLSSTLTLSKADYEKHKVYACEVTHQGLSSPVTKSFNRGEC
scFv: ELVVTQEPSLTTSPGGTVTLTCRSSTGAVTTSNYANWVQQKPGQAPRGLIGGTNKRAPGTPARFSGSLLGGKAALTITGVQPEDEAEYYCALWYSNLWVFGGGTKLTVLGGGGSGGGGSGGGGSEVQLVESGGGLVQPGGSLRLSCAASGFTFNTYAMNWVRQAPGKGLEWVARIRSKYNNYATYYADSVKDRFTISRDDSKNTAYLQMNNLKTEDTAMYYCVRHGNFGNSYVSWFAYWGQGTLVTVSSGEPKSSDKTHTCPPCPAPEAAGGPSVFLFPPKPKDTLMISRTPEVTCVVVDVSHEDPEVKFNWYVDGVEVHNAKTKPREEQYNSTYRVVSVLTVLHQDWLNGKEYKCKVSNKALAAPIEKTISKAKGQPREPQVYTLPPCREEMTKNQVSLWCLVKGFYPSDIAVEWESNGQPENNYKTTPPVLDSDGSFFLYSKLTVDKSRWQQGNVFSCSVMHEALHNRYTQKSLSLSPGK
notes: also called anti-GPRC5D/anti-CD3 bispecific antibody GC39

Molecular target: T1, T cell surface CD3 (human, UniProt P07766 23-207)
T1 construct: whole, on cells
T1 sequence (P07766 23-207): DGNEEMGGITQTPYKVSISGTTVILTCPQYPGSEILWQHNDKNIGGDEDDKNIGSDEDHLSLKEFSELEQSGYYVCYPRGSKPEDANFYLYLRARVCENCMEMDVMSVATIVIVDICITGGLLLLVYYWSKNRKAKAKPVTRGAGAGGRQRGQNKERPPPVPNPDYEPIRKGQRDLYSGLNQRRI
Test: flow cytometry on human CD3+ T cells
Protocol: Human PBMCs (peripheral blood mononuclear cells) were sorted for CD3⁺ T cells using CD3 magnetic beads (Miltenyi, Cat. No. 130-097-043). The cryopreserved PBMCs were thawed, and washed by centrifugation twice for counting. The running buffer (MACS, Cat. No. 130-091-221) was added at a ratio of 80 μL per 10⁷ cells, and the CD3 magnetic beads were added at a ratio of 20 μL CD3 magnetic beads per 10⁷ cells. The mixture was mixed well and incubated at 4° C. for 15 min. The running buffer was added at a ratio of 1-2 mL per 10⁷ cells for washing the cells. The mixture was centrifuged, the supernatant was discarded, and 500 μL of running buffer was added to resuspend the cell pellet. The LS sorting column (Miltenyi, Cat. No. 130-042-401) was placed on the MidiMACS Starting Kit (LS) magnetic rack (Miltenyi, Cat. No. 130-091-051). After rinsing, the cell suspension was added and washed thrice. The LS sorting column was removed from the magnetic rack and placed on a clean centrifuge tube and 5 mL buffer was added to collect the sorted CD3⁺ T cells.
After counting, the CD3⁺ T cells were adjusted to a cell density of 1×10⁶-2×10⁶ cells/mL using running buffer, and seeded in a 96-well U-bottom cell culture plate (Costar, Cat. No. 3799) at 50 μL per well. Different concentrations of the anti-GPRC5D/anti-CD3 bispecific antibodies were prepared using running buffer. The highest concentration of the antibodies was 200 nM, and the antibodies were serially diluted 5-fold to obtain a total of 10 concentration gradients. The antibodies at different concentrations were added to the 96-well cell culture plate described above at 50 μL per well, mixed well and incubated at 4° C. for 1 h. The cells were washed with pre-cooled running buffer (MACS, Cat. No. 130-091-221), and then the supernatant was discarded. Pre-cooled PE-conjugated goat anti-human IgG Fcγ antibody (Jackson Immuno Research, Cat. No. 109-116-170) was added, and the cells were resuspended at 100 μL/well. The mixture was mixed well and incubated at 4° C. for 30 min. […]

In order of rising “Top(MFI)” value:
1. B3  38000
2. B2  54700
3. B1  155000
